Ki data for twelve molecules are collected here from patent publication US20180273587A1 (AILERON THERAPEUTICS, published 2018).

Holding throughout (assay): Ki; method not stated; unit not printed (nM per Table 6)
One test deals with T1, MCL-1 (UniProt Q07820 172-327, limits assumed).
T1 construct: Target of the Ki columns; also called Myeloid cell leukemia 1

For the next test, the target named is T2, BCL-XL (UniProt Q07817 1-209).
T2 construct: Target of the Ki columns

For a further test, the target named is T3, BCL-2 (UniProt P10415 1-217, limits assumed).
T3 construct: Target of the Ki columns

Positions of bridges follow the written chain, without caps; N, C: chain ends. Non-standard residues stand in square brackets, D forms with d. 2Nal = N[C@@H](Cc1ccc2ccccc2c1)C(=O)O; hPhe = N[C@@H](CCc1ccccc1)C(=O)O; R8 = C=CCCCCCC[C@@](C)(N)C(=O)O; S5 = C=CCCC[C@](C)(N)C(=O)O

T3 sequence (P10415 1-217 limits assumed): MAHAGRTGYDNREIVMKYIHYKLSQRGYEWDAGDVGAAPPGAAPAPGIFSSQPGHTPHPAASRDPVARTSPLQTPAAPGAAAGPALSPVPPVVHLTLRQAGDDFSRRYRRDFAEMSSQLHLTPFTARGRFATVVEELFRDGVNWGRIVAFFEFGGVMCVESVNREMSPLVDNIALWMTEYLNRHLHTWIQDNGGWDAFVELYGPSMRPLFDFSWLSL
T2 sequence (Q07817 1-209): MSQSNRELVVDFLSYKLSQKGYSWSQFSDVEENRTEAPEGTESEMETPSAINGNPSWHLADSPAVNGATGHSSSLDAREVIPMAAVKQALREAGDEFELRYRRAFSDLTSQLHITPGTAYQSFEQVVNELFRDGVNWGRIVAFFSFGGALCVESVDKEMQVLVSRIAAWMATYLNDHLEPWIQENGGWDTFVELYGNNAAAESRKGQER
T1 sequence (Q07820 172-327 limits assumed): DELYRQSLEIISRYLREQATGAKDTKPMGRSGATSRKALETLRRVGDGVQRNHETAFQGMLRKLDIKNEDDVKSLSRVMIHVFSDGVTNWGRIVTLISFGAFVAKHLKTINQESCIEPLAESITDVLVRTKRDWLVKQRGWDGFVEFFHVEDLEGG

B1: SEQ ID NO: 1733 (peptide)
peptide: Ac-IWISAALR[R8]IGDAFN[S5]YYA-NH2
modifications: staple 9-16
SMILES: CC[C@H](C)[C@H](NC(C)=O)C(=O)N[C@@H](Cc1c[nH]c2ccccc12)C(=O)N[C@H](C(=O)N[C@@H](CO)C(=O)N[C@@H](C)C(=O)N[C@@H](C)C(=O)N[C@@H](CC(C)C)C(=O)N[C@@H](CCCNC(=N)N)C(=O)N[C@]1(C)CCCCCCC=CCCC[C@@](C)(C(=O)N[C@@H](Cc2ccc(O)cc2)C(=O)N[C@@H](Cc2ccc(O)cc2)C(=O)N[C@@H](C)C(N)=O)NC(=O)[C@H](CC(N)=O)NC(=O)[C@H](Cc2ccccc2)NC(=O)[C@H](C)NC(=O)[C@H](CC(=O)O)NC(=O)CNC(=O)[C@H]([C@@H](C)CC)NC1=O)[C@@H](C)CC
As a reminder, the Ki is the dissociation constant of the complex between target and ligand, obtained from inhibition or displacement. With B1, the Ki with MCL-1 was determined as 3.6 nM; with BCL-XL, 67.8 nM; in the test with BCL-2 it was 117 nM.

B2: SEQ ID NO: 1734 (peptide)
peptide: Ac-IWILAALR[R8]IGDAFN[S5]YYA-NH2
modifications: staple 9-16
SMILES: CC[C@H](C)[C@H](NC(C)=O)C(=O)N[C@@H](Cc1c[nH]c2ccccc12)C(=O)N[C@H](C(=O)N[C@@H](CC(C)C)C(=O)N[C@@H](C)C(=O)N[C@@H](C)C(=O)N[C@@H](CC(C)C)C(=O)N[C@@H](CCCNC(=N)N)C(=O)N[C@]1(C)CCCCCCC=CCCC[C@@](C)(C(=O)N[C@@H](Cc2ccc(O)cc2)C(=O)N[C@@H](Cc2ccc(O)cc2)C(=O)N[C@@H](C)C(N)=O)NC(=O)[C@H](CC(N)=O)NC(=O)[C@H](Cc2ccccc2)NC(=O)[C@H](C)NC(=O)[C@H](CC(=O)O)NC(=O)CNC(=O)[C@H]([C@@H](C)CC)NC1=O)[C@@H](C)CC
Regarding B2, the figures for the inhibitory constant (Ki) with MCL-1, in the test with BCL-XL and in the test with BCL-2 were 19.7 nM, 96.2 nM and 170 nM, respectively.

B3: SEQ ID NO: 1735 (peptide)
peptide: Ac-IWIFAALR[R8]IGDAFN[S5]YYA-NH2
modifications: staple 9-16
SMILES: CC[C@H](C)[C@H](NC(C)=O)C(=O)N[C@@H](Cc1c[nH]c2ccccc12)C(=O)N[C@H](C(=O)N[C@@H](Cc1ccccc1)C(=O)N[C@@H](C)C(=O)N[C@@H](C)C(=O)N[C@@H](CC(C)C)C(=O)N[C@@H](CCCNC(=N)N)C(=O)N[C@]1(C)CCCCCCC=CCCC[C@@](C)(C(=O)N[C@@H](Cc2ccc(O)cc2)C(=O)N[C@@H](Cc2ccc(O)cc2)C(=O)N[C@@H](C)C(N)=O)NC(=O)[C@H](CC(N)=O)NC(=O)[C@H](Cc2ccccc2)NC(=O)[C@H](C)NC(=O)[C@H](CC(=O)O)NC(=O)CNC(=O)[C@H]([C@@H](C)CC)NC1=O)[C@@H](C)CC
For the molecule B3, the figures for the Ki with MCL-1, with BCL-XL and in the test with BCL-2 were 17.2 nM, 110 nM and 125 nM, respectively.

B4: SEQ ID NO: 1730 (peptide)
peptide: Ac-ILIAAALR[R8]IGDAFN[S5]YYA-NH2
modifications: staple 9-16
SMILES: CC[C@H](C)[C@H](NC(C)=O)C(=O)N[C@@H](CC(C)C)C(=O)N[C@H](C(=O)N[C@@H](C)C(=O)N[C@@H](C)C(=O)N[C@@H](C)C(=O)N[C@@H](CC(C)C)C(=O)N[C@@H](CCCNC(=N)N)C(=O)N[C@]1(C)CCCCCCC=CCCC[C@@](C)(C(=O)N[C@@H](Cc2ccc(O)cc2)C(=O)N[C@@H](Cc2ccc(O)cc2)C(=O)N[C@@H](C)C(N)=O)NC(=O)[C@H](CC(N)=O)NC(=O)[C@H](Cc2ccccc2)NC(=O)[C@H](C)NC(=O)[C@H](CC(=O)O)NC(=O)CNC(=O)[C@H]([C@@H](C)CC)NC1=O)[C@@H](C)CC
As for B4, the Ki with MCL-1 stood at 10.2 nM; with BCL-XL, 71.8 nM; with BCL-2 it was 126 nM.

B5: SEQ ID NO: 1732 (peptide)
peptide: Ac-I[2Nal]IAAALR[R8]IGDAFN[S5]YYA-NH2
modifications: staple 9-16
SMILES: CC[C@H](C)[C@H](NC(C)=O)C(=O)N[C@@H](Cc1ccc2ccccc2c1)C(=O)N[C@H](C(=O)N[C@@H](C)C(=O)N[C@@H](C)C(=O)N[C@@H](C)C(=O)N[C@@H](CC(C)C)C(=O)N[C@@H](CCCNC(=N)N)C(=O)N[C@]1(C)CCCCCCC=CCCC[C@@](C)(C(=O)N[C@@H](Cc2ccc(O)cc2)C(=O)N[C@@H](Cc2ccc(O)cc2)C(=O)N[C@@H](C)C(N)=O)NC(=O)[C@H](CC(N)=O)NC(=O)[C@H](Cc2ccccc2)NC(=O)[C@H](C)NC(=O)[C@H](CC(=O)O)NC(=O)CNC(=O)[C@H]([C@@H](C)CC)NC1=O)[C@@H](C)CC
notes: Row prints Ac-I2NalIAAALR$r8IGDAFN$YYA-NH2
Take B5: the Ki in the test with MCL-1 is 13.7 nM; in the test with BCL-XL it was 55.3 nM; in the test with BCL-2 it was 144 nM.

B6: SEQ ID NO: 1731 (peptide)
peptide: Ac-IFIAAALR[R8]IGDAFN[S5]YYA-NH2
modifications: staple 9-16
SMILES: CC[C@H](C)[C@H](NC(C)=O)C(=O)N[C@@H](Cc1ccccc1)C(=O)N[C@H](C(=O)N[C@@H](C)C(=O)N[C@@H](C)C(=O)N[C@@H](C)C(=O)N[C@@H](CC(C)C)C(=O)N[C@@H](CCCNC(=N)N)C(=O)N[C@]1(C)CCCCCCC=CCCC[C@@](C)(C(=O)N[C@@H](Cc2ccc(O)cc2)C(=O)N[C@@H](Cc2ccc(O)cc2)C(=O)N[C@@H](C)C(N)=O)NC(=O)[C@H](CC(N)=O)NC(=O)[C@H](Cc2ccccc2)NC(=O)[C@H](C)NC(=O)[C@H](CC(=O)O)NC(=O)CNC(=O)[C@H]([C@@H](C)CC)NC1=O)[C@@H](C)CC
For the molecule B6, the values for the Ki with MCL-1, with BCL-XL and with BCL-2 were 10.2 nM, 45.3 nM and 95.9 nM, respectively.

B7: SEQ ID NO: 1743 (peptide)
peptide: Ac-IWIAQALR[R8]IGDA[hPhe]N[S5]YYA-NH2
modifications: staple 9-16
SMILES: CC[C@H](C)[C@H](NC(C)=O)C(=O)N[C@@H](Cc1c[nH]c2ccccc12)C(=O)N[C@H](C(=O)N[C@@H](C)C(=O)N[C@@H](CCC(N)=O)C(=O)N[C@@H](C)C(=O)N[C@@H](CC(C)C)C(=O)N[C@@H](CCCNC(=N)N)C(=O)N[C@]1(C)CCCCCCC=CCCC[C@@](C)(C(=O)N[C@@H](Cc2ccc(O)cc2)C(=O)N[C@@H](Cc2ccc(O)cc2)C(=O)N[C@@H](C)C(N)=O)NC(=O)[C@H](CC(N)=O)NC(=O)[C@H](CCc2ccccc2)NC(=O)[C@H](C)NC(=O)[C@H](CC(=O)O)NC(=O)CNC(=O)[C@H]([C@@H](C)CC)NC1=O)[C@@H](C)CC
Turning to B7, the Ki in the test with MCL-1 worked out at 2.7 nM; with BCL-XL, 16.6 nM; with BCL-2, 38.9 nM.

B8: SEQ ID NO: 1754 (peptide)
peptide: Ac-IWIAQALR[R8]IGDAFN[S5]YAA-NH2
modifications: staple 9-16
SMILES: CC[C@H](C)[C@H](NC(C)=O)C(=O)N[C@@H](Cc1c[nH]c2ccccc12)C(=O)N[C@H](C(=O)N[C@@H](C)C(=O)N[C@@H](CCC(N)=O)C(=O)N[C@@H](C)C(=O)N[C@@H](CC(C)C)C(=O)N[C@@H](CCCNC(=N)N)C(=O)N[C@]1(C)CCCCCCC=CCCC[C@@](C)(C(=O)N[C@@H](Cc2ccc(O)cc2)C(=O)N[C@@H](C)C(=O)N[C@@H](C)C(N)=O)NC(=O)[C@H](CC(N)=O)NC(=O)[C@H](Cc2ccccc2)NC(=O)[C@H](C)NC(=O)[C@H](CC(=O)O)NC(=O)CNC(=O)[C@H]([C@@H](C)CC)NC1=O)[C@@H](C)CC
As for B8, the Ki with MCL-1 came out at 20.3 nM; with BCL-XL, 51.8 nM; in the test with BCL-2 it was 102 nM.

B9: SEQ ID NO: 1736 (peptide)
peptide: Ac-IWIALALR[R8]IGDAFN[S5]YYA-NH2
modifications: staple 9-16
SMILES: CC[C@H](C)[C@H](NC(C)=O)C(=O)N[C@@H](Cc1c[nH]c2ccccc12)C(=O)N[C@H](C(=O)N[C@@H](C)C(=O)N[C@@H](CC(C)C)C(=O)N[C@@H](C)C(=O)N[C@@H](CC(C)C)C(=O)N[C@@H](CCCNC(=N)N)C(=O)N[C@]1(C)CCCCCCC=CCCC[C@@](C)(C(=O)N[C@@H](Cc2ccc(O)cc2)C(=O)N[C@@H](Cc2ccc(O)cc2)C(=O)N[C@@H](C)C(N)=O)NC(=O)[C@H](CC(N)=O)NC(=O)[C@H](Cc2ccccc2)NC(=O)[C@H](C)NC(=O)[C@H](CC(=O)O)NC(=O)CNC(=O)[C@H]([C@@H](C)CC)NC1=O)[C@@H](C)CC
Consider B9, for which the values for the Ki in the test with MCL-1, with BCL-XL and with BCL-2 were 11.6 nM, 37.9 nM and 75.8 nM, respectively.

B10: SEQ ID NO: 1742 (peptide)
peptide: Ac-IWIAQALR[R8]IGDAWN[S5]YYA-NH2
modifications: staple 9-16
SMILES: CC[C@H](C)[C@H](NC(C)=O)C(=O)N[C@@H](Cc1c[nH]c2ccccc12)C(=O)N[C@H](C(=O)N[C@@H](C)C(=O)N[C@@H](CCC(N)=O)C(=O)N[C@@H](C)C(=O)N[C@@H](CC(C)C)C(=O)N[C@@H](CCCNC(=N)N)C(=O)N[C@]1(C)CCCCCCC=CCCC[C@@](C)(C(=O)N[C@@H](Cc2ccc(O)cc2)C(=O)N[C@@H](Cc2ccc(O)cc2)C(=O)N[C@@H](C)C(N)=O)NC(=O)[C@H](CC(N)=O)NC(=O)[C@H](Cc2c[nH]c3ccccc23)NC(=O)[C@H](C)NC(=O)[C@H](CC(=O)O)NC(=O)CNC(=O)[C@H]([C@@H](C)CC)NC1=O)[C@@H](C)CC
Consider B10, for which the values for the Ki with MCL-1, with BCL-XL and with BCL-2 were 2.3 nM, 14.5 nM and 17.7 nM, respectively.

B11: SEQ ID NO: 1755 (peptide)
peptide: Ac-IWIAQALR[R8]IGDAFN[S5]YLA-NH2
modifications: staple 9-16
SMILES: CC[C@H](C)[C@H](NC(C)=O)C(=O)N[C@@H](Cc1c[nH]c2ccccc12)C(=O)N[C@H](C(=O)N[C@@H](C)C(=O)N[C@@H](CCC(N)=O)C(=O)N[C@@H](C)C(=O)N[C@@H](CC(C)C)C(=O)N[C@@H](CCCNC(=N)N)C(=O)N[C@]1(C)CCCCCCC=CCCC[C@@](C)(C(=O)N[C@@H](Cc2ccc(O)cc2)C(=O)N[C@@H](CC(C)C)C(=O)N[C@@H](C)C(N)=O)NC(=O)[C@H](CC(N)=O)NC(=O)[C@H](Cc2ccccc2)NC(=O)[C@H](C)NC(=O)[C@H](CC(=O)O)NC(=O)CNC(=O)[C@H]([C@@H](C)CC)NC1=O)[C@@H](C)CC
As to B11, the Ki with MCL-1 stood at 23.4 nM; with BCL-XL it was 9 nM; with BCL-2, 18.9 nM.

With IWIAQALRAIGDAANAYYA (N-terminal Ac; $r8 at 9 and $ at 16 (crosslinked); 2Nal at 14; C-terminal NH2) [SEQ ID NO: 1746], the Ki with MCL-1 came out at 4.4 nM; with BCL-XL, 19.1 nM; with BCL-2, 35.1 nM.
